Results published in publication PMC4294473.

Target: recombinant human P301S 0N4R Tau (human)
Experiment: co-sedimentation; cell seeding assay: HEK293T cells expressing P301S 1N4R Tau exposed 3 h to rising concentrations of heparin-assembled, sonicated recombinant Tau aggregates (Sarkosyl-insoluble), 3 days; Sarkosyl-insoluble pellet blotted with HT7

fold more seed needed than of TgP301S Tau aggregates for equivalent seeding: > 10 fold
fold more seed needed than of TgP301S Tau seed for equivalent Sarkosyl-insoluble Tau: 50 fold
Substance: human P301S 1N4R Tau expressed in HEK293T cells (natural protein)
